Results: patent US20130115676
Positions count from the first letter of the chain named.

Legend:
Assay in all cases: cleavage_in_vitro
BstXI-HF N65A = details: NEB4, 10 mM Mg acetate, 55 C
[1] = test system: T1, NcoI-HF A2T/R31A (Nocardia corallina); details: NEB4, 10 mM Mg acetate, 37 C
T1 sequence: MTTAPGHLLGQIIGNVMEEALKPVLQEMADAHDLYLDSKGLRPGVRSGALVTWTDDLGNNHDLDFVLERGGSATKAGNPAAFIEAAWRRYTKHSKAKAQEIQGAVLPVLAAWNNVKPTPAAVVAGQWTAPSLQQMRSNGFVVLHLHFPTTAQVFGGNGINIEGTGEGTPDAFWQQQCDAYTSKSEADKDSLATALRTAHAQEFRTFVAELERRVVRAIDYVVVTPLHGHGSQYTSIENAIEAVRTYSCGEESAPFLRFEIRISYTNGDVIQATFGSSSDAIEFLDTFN

[2] = test system: T2, SapI (Saccharopolyspora sp.); details: NEB4, 10 mM Mg acetate, 37 C
T2 sequence: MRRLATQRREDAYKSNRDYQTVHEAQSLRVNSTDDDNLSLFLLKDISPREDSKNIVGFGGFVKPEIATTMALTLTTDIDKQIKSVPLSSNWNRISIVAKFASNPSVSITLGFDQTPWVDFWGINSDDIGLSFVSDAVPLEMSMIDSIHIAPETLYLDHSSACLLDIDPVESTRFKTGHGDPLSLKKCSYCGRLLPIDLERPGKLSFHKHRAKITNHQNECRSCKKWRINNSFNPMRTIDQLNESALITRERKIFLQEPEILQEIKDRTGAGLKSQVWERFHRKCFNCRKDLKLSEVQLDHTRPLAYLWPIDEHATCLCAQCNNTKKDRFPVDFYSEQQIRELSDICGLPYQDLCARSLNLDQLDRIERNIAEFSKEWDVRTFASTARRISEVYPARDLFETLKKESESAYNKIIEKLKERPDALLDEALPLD

[3] = target: T3, BamHI (Bacillus amyloliquefaciens) (UniProt P23940); details: NEB3, 10 mM MgCl2, 37 C
T3 sequence: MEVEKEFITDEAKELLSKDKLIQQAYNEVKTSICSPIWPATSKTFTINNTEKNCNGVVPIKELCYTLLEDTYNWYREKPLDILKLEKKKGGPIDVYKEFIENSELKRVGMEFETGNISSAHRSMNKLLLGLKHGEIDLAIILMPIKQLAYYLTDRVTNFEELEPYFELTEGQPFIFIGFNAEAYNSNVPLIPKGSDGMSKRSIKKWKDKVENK

[4] = target: T4, PstI (Providencia stuartii 164) (UniProt P00640); details: NEB3, 10 mM MgCl2, 37 C
T4 sequence: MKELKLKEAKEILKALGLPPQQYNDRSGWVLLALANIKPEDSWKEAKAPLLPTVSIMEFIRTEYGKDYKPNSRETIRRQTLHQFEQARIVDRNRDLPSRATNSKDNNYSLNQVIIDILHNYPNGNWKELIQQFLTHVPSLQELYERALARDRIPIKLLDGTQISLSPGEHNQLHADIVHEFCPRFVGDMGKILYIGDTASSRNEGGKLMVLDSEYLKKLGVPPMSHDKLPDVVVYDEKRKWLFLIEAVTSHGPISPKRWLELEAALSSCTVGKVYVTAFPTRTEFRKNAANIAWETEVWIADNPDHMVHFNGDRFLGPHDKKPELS

[5] = test system: T5, SspI-HF Y98F (Sphaerotilus species); details: NEB4, 10 mM Mg acetate, 37 C
T5 sequence: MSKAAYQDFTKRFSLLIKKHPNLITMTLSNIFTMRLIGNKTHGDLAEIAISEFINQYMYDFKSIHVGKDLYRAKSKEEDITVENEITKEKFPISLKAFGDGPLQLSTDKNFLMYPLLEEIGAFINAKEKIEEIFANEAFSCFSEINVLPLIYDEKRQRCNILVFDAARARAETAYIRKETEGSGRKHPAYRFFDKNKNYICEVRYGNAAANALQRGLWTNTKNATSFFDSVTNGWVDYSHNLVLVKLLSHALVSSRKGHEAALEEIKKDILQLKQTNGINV

[6] = target: EcoRI (Escherichia coli RY13) (UniProt P00642); details: NEB3, 10 mM MgCl2, 37 C
[7] = target: T6, HindIII (Haemophilus influenzae Rd) (UniProt P43870); details: NEB2, 10 mM MgCl2, 37 C
T6 sequence: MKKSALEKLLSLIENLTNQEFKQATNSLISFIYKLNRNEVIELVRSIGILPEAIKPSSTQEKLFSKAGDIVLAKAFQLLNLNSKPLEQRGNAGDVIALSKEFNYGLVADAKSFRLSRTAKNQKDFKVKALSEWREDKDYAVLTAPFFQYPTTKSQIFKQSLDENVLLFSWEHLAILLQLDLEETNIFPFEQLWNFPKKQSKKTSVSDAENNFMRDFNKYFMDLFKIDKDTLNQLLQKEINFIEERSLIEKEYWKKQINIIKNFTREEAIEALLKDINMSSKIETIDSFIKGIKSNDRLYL

BstXI = details: NEB4, 10 mM Mg acetate, 55 C
[8] = test system: T7, SbfI-HF K251A (Streptomyces species Bf-61?); details: NEB1, 10 mM MgCl2, 37 C
T7 sequence: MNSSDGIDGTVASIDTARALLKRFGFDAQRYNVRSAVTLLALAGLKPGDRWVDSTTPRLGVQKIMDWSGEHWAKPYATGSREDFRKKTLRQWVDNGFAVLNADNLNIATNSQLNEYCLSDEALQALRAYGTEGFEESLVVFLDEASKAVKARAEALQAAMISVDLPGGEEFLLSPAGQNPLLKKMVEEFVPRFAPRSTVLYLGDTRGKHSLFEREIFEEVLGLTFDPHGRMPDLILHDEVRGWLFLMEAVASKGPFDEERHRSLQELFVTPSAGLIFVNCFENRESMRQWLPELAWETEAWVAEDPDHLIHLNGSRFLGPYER

[9] = test system: T8, SbfI (Streptomyces species Bf-61?); details: NEB1, 10 mM MgCl2, 37 C
T8 sequence: T7 sequence with A251K

Substance: lambda DNA
- activity (fidelity index) (BstXI-HF N65A): > 250
- activity (fidelity index) [1]: > 64000
- activity (fidelity index) [2]: 16
- activity (fidelity index) [3]: 32
- activity (fidelity index) [4]: 120
- activity (fidelity index) [5]: 500
- activity (fidelity index) [6]: 250
- activity (fidelity index) [7]: 250
- activity (fidelity index) (BstXI): 4
- activity (fidelity index) [8]: 1000
- activity (fidelity index) [9]: 32
